B1: Homeodomain-interacting protein kinase 1 (Mus musculus), O88904 (parent)
chain: MASQLQVFSPPSVSSSAFCSAKKLKIEPSGWDVSGQSSNDKYYTHSKTLPATQGQASSSHQVANFNLPAYDQGLLLPAPAVEHIVVTAADSSGSAATATFQSSQTLTHRSNVSLLEPYQKCGLKRKSEEVESNGSVQIIEEHPPLMLQNRTVVGAAATTTTVTTKSSSSSGEGDYQLVQHEILCSMTNSYEVLEFLGRGTFGQVAKCWKRSTKEIVAIKILKNHPSYARQGQIEVSILSRLSSENADEYNFVRSYECFQHKNHTCLVFEMLEQNLYDFLKQNKFSPLPLKYIRPILQQVATALMKLKSLGLIHADLKPENIMLVDPVRQPYRVKVIDFGSASHVSKAVCSTYLQSRYYRAPEIILGLPFCEAIDMWSLGCVIAELFLGWPLYPGASEYDQIRYISQTQGLPAEYLLSAGTKTTRFFNRDPNLGYPLWRLKTPEEHELETGIKSKEARKYIFNCLDDMAQVNMSTDLEGTDMLAEKADRREYIDLLKKMLTIDADKRITPLKTLNHQFVTMSHLLDFPHSSHVKSCFQNMEICKRRVHMYDTVSQIKSPFTTHVAPNTSTNLTMSFSNQLNTVHNQASVLASSSTAAAATLSLANSDVSLLNYQSALYPSSAAPVPGVAQQGVSLQPGTTQICTQTDPFQQTFIVCPPAFQTGLQATTKHSGFPVRMDNAVPIVPQAPAAQPLQIQSGVLTQGSCTPLMVATLHPQVATITPQYAVPFTLSCAAGRPALVEQTAAVLQAWPGGTQQILLPSAWQQLPGVALHNSVQPAAVIPEAMGSSQQLADWRNAHSHGNQYSTIMQQPSLLTNHVTLATAQPLNVGVAHVVRQQQSSSLPSKKNKQSAPVSSKSSLEVLPSQVYSLVGSSPLRTTSSYNSLVPVQDQHQPIIIPDTPSPPVSVITIRSDTDEEEDNKYKPNSSSLKARSNVISYVTVNDSPDSDSSLSSPHPTDTLSALRGNSGTLLEGPGRPAADGIGTRTIIVPPLKTQLGDCTVATQASGLLSSKTKPVASVSGQSSGCCITPTGYRAQRGGASAVQPLNLSQNQQSSSASTSQERSSNPAPRRQQAFVAPLSQAPYAFQHGSPLHSTGHPHLAPAPAHLPSQPHLYTYAAPTSAAALGSTSSIAHLFSPQGSSRHAAAYTTHPSTLVHQVPVSVGPSLLTSASVAPAQYQHQFATQSYIGSSRGSTIYTGYPLSPTKISQYSYL

Variants of: B1
Conditions: with daxx_human DAXX
In the case of K219A, the “effect of a mutation on the interaction” value is reported as “decreasing interaction”.

Variants of: B1
Conditions: with daxx_mouse Daxx
In the case of K219A, the “effect of a mutation on the interaction” value is reported as “decreasing interaction”.

— IntAct's records for PubMed 12529400
